Laboratory results: the supplement of paper PMC10065799, “High-throughput profiling of sequence recognition by tyrosine kinases and SH2 domains using bacterial peptide display” (eLife, 2023)

target: SHP2-C SH2; test: SH2 binding enrichment of the phosphorylated peptide, bacterial display (enrichment ratio); higher = better substrate or ligand; peptides without Tyr show the background
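Wherever SH2 binding enrichment of the phosphorylated peptide, bacterial display is given: peptide library displayed on the E. coli surface as eCPX fusions, selected cells deep-sequenced, score is each peptide's frequency after selection divided by its frequency in the input.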
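Wherever phosphorylation enrichment, bacterial display is given: 11-residue human phosphosite peptides and single-mutation variants displayed on the E. coli surface, counted by deep sequencing, each peptide's frequency after selection divided by its frequency in the unselected input library; frequency after pTyr selection over input frequency; kinase dosed for 20-30% of maximal phosphorylation in three min.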

Sequence | SH2 binding enrichment
HPFHVYSQPGM [BAG3_Y114_P115S] | 0.806
KLQKYYRQNPD [EHHADH_Y683] | 0.694
KDGIGYISAAE [CALM2_Y100_N98I] | 0.686
QFLMMYVWSAS [ABCD1_Y337_K336M] | 1.03
GGRKGYGGFSR [RECQL5_Y478_D480G] | 0.571
CHSDDYVHISL [TSC1_Y406] | 0.593
PVQAADQKVVA [HBB_Y131_Y131D] | 0.733
FKDVTYLKEEK [UBE3A_Y127_T129K] | 0.465
PVVKLYATEGR [RP1_Y199_D202E] | 1.1
VFFFSYLLKNH [PTEN_Y180_YF] | 0.896
KPLMPYMRFSR [SMARCE1_Y73_YF] | 0.831
SRDDDYETIAM [NPY1R_Y347] | 0.789
EEGNPYFSSAR [MCCC2_Y520_YF] | 0.627
DRPASYKKKSM [PDGFRA_Y768] | 0.962
KANEYYPVVLI [ADAMTS18_Y765] | 0.625
VDASYYGGRGV [ANTXR2_Y381] | 0.638
MDDPRYGMCPL [ZNF100_Y6] | 0.506
RGEKQYLATPL [ALOX12_Y295_A298T] | 0.766
SLGSPYEQPPR [PDLIM4_Y137_G138E] | 1
AFLEDYFTSTE [SRC_Y522] | 0.959
AEMKRYSESSS [RAI14_Y869_A870S] | 0.767
VECQVYAEDPF [PCCA_Y401_R399Q_YF] | 0.501
TYGVVYKARNK [CDK2_Y19] | 0.253
FSNVLYRPRGP [TMIGD2_Y197_A202P_YF] | 0.794
EAAFVYVISSA [WNT4_Y113_A114V] | 0.76
IFLGAYDRFLP [SLC22A5_Y486_V481I_YF] | 1.22
LLKNMYLMLDN [STAT1_Y203_K201N] | 3.55
KTGDFYDLFGG [PTPN11_Y63_N58K_YF] | 0.781
YFCRWYRNRKS [EREG_Y144] | 0.623

target: c-Src SH2; test: as above

Sequence | SH2 binding enrichment
HPFHVYSQPGM [BAG3_Y114_P115S] | 18.1
KLQKYYRQNPD [EHHADH_Y683] | 0.503
KDGIGYISAAE [CALM2_Y100_N98I] | 0.598
QFLMMYVWSAS [ABCD1_Y337_K336M] | 0.543
GGRKGYGGFSR [RECQL5_Y478_D480G] | 0.453
CHSDDYVHISL [TSC1_Y406] | 0.539
PVQAADQKVVA [HBB_Y131_Y131D] | 0.388
FKDVTYLKEEK [UBE3A_Y127_T129K] | 0.642
PVVKLYATEGR [RP1_Y199_D202E] | 0.702
VFFFSYLLKNH [PTEN_Y180_YF] | 0.616
KPLMPYMRFSR [SMARCE1_Y73_YF] | 0.412
SRDDDYETIAM [NPY1R_Y347] | 0.8
EEGNPYFSSAR [MCCC2_Y520_YF] | 0.51
DRPASYKKKSM [PDGFRA_Y768] | 0.412
KANEYYPVVLI [ADAMTS18_Y765] | 0.404
VDASYYGGRGV [ANTXR2_Y381] | 0.471
MDDPRYGMCPL [ZNF100_Y6] | 0.522
RGEKQYLATPL [ALOX12_Y295_A298T] | 0.569
SLGSPYEQPPR [PDLIM4_Y137_G138E] | 1.05
AFLEDYFTSTE [SRC_Y522] | 0.578
AEMKRYSESSS [RAI14_Y869_A870S] | 0.541
VECQVYAEDPF [PCCA_Y401_R399Q_YF] | 0.498
TYGVVYKARNK [CDK2_Y19] | 0.548
FSNVLYRPRGP [TMIGD2_Y197_A202P_YF] | 0.506
EAAFVYVISSA [WNT4_Y113_A114V] | 0.39
IFLGAYDRFLP [SLC22A5_Y486_V481I_YF] | 0.996
LLKNMYLMLDN [STAT1_Y203_K201N] | 0.945
KTGDFYDLFGG [PTPN11_Y63_N58K_YF] | 0.628
YFCRWYRNRKS [EREG_Y144] | 0.571

target: Grb2 SH2 (UniProt P62993); test: as above
Sequence (P62993 whole entry, looked up): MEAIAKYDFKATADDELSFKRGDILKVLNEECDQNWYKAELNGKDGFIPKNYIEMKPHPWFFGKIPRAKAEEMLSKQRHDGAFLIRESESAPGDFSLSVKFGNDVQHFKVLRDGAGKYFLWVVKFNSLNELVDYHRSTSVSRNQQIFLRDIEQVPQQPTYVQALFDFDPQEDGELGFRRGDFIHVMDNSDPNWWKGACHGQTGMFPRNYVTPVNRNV

Sequence | SH2 binding enrichment
HPFHVYSQPGM [BAG3_Y114_P115S] | 1.39
KLQKYYRQNPD [EHHADH_Y683] | 0.948
KDGIGYISAAE [CALM2_Y100_N98I] | 1.07
QFLMMYVWSAS [ABCD1_Y337_K336M] | 0.929
GGRKGYGGFSR [RECQL5_Y478_D480G] | 0.736
CHSDDYVHISL [TSC1_Y406] | 0.762
PVQAADQKVVA [HBB_Y131_Y131D] | 0.731
FKDVTYLKEEK [UBE3A_Y127_T129K] | 0.823
PVVKLYATEGR [RP1_Y199_D202E] | 0.966
VFFFSYLLKNH [PTEN_Y180_YF] | 0.982
KPLMPYMRFSR [SMARCE1_Y73_YF] | 0.838
SRDDDYETIAM [NPY1R_Y347] | 0.979
EEGNPYFSSAR [MCCC2_Y520_YF] | 0.769
DRPASYKKKSM [PDGFRA_Y768] | 0.803
KANEYYPVVLI [ADAMTS18_Y765] | 0.683
VDASYYGGRGV [ANTXR2_Y381] | 0.738
MDDPRYGMCPL [ZNF100_Y6] | 0.632
RGEKQYLATPL [ALOX12_Y295_A298T] | 0.784
SLGSPYEQPPR [PDLIM4_Y137_G138E] | 0.887
AFLEDYFTSTE [SRC_Y522] | 0.967
AEMKRYSESSS [RAI14_Y869_A870S] | 0.744
VECQVYAEDPF [PCCA_Y401_R399Q_YF] | 0.764
TYGVVYKARNK [CDK2_Y19] | 0.788
FSNVLYRPRGP [TMIGD2_Y197_A202P_YF] | 0.693
EAAFVYVISSA [WNT4_Y113_A114V] | 0.735
IFLGAYDRFLP [SLC22A5_Y486_V481I_YF] | 0.941
LLKNMYLMLDN [STAT1_Y203_K201N] | 0.975
KTGDFYDLFGG [PTPN11_Y63_N58K_YF] | 0.93
YFCRWYRNRKS [EREG_Y144] | 0.716

target: EPHB1 (UniProt P54762); test: phosphorylation enrichment, bacterial display (enrichment ratio); higher = better substrate or ligand; peptides without Tyr show the background
Sequence (P54762 whole entry, looked up): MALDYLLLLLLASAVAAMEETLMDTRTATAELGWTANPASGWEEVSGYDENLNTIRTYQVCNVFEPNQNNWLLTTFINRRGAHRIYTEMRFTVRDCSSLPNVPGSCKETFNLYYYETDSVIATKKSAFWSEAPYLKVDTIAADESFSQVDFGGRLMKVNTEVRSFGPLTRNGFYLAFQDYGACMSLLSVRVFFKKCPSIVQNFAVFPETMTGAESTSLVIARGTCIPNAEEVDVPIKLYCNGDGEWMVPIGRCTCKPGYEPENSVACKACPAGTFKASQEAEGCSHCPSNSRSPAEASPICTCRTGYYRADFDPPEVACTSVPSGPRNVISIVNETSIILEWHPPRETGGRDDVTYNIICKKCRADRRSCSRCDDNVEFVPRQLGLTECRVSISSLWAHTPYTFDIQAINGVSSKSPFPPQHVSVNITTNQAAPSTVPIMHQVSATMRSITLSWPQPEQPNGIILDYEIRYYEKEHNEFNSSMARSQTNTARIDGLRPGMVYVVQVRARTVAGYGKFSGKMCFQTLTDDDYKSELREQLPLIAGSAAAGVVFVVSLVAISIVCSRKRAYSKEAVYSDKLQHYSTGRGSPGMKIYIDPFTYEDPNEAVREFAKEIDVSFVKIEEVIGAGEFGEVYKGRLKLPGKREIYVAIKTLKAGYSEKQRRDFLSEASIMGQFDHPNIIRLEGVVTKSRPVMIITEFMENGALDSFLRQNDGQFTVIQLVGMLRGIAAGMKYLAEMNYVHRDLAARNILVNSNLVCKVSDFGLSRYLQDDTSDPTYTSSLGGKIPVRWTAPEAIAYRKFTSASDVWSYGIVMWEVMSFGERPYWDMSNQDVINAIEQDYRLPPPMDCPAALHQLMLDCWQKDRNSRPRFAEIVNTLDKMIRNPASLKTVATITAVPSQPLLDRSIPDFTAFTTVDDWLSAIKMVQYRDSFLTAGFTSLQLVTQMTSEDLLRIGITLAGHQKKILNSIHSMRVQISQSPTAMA

Sequence | phosphorylation enrichment
HPFHVYSQPGM [BAG3_Y114_P115S] | 0.649
KLQKYYRQNPD [EHHADH_Y683] | 0.765
KDGIGYISAAE [CALM2_Y100_N98I] | 0.393
QFLMMYVWSAS [ABCD1_Y337_K336M] | 0.873
GGRKGYGGFSR [RECQL5_Y478_D480G] | 0.393
CHSDDYVHISL [TSC1_Y406] | 0.768
PVQAADQKVVA [HBB_Y131_Y131D] | 0.508
FKDVTYLKEEK [UBE3A_Y127_T129K] | 0.466
PVVKLYATEGR [RP1_Y199_D202E] | 0.389
VFFFSYLLKNH [PTEN_Y180_YF] | 0.559
KPLMPYMRFSR [SMARCE1_Y73_YF] | 0.385
SRDDDYETIAM [NPY1R_Y347] | 1.31
EEGNPYFSSAR [MCCC2_Y520_YF] | 0.446
DRPASYKKKSM [PDGFRA_Y768] | 0.343
KANEYYPVVLI [ADAMTS18_Y765] | 3.64
VDASYYGGRGV [ANTXR2_Y381] | 0.708
MDDPRYGMCPL [ZNF100_Y6] | 0.687
RGEKQYLATPL [ALOX12_Y295_A298T] | 0.598
SLGSPYEQPPR [PDLIM4_Y137_G138E] | 0.487
AFLEDYFTSTE [SRC_Y522] | 0.598
AEMKRYSESSS [RAI14_Y869_A870S] | 0.308
VECQVYAEDPF [PCCA_Y401_R399Q_YF] | 0.6
TYGVVYKARNK [CDK2_Y19] | 0.369
FSNVLYRPRGP [TMIGD2_Y197_A202P_YF] | 0.429
EAAFVYVISSA [WNT4_Y113_A114V] | 0.684
IFLGAYDRFLP [SLC22A5_Y486_V481I_YF] | 0.84
LLKNMYLMLDN [STAT1_Y203_K201N] | 1.34
KTGDFYDLFGG [PTPN11_Y63_N58K_YF] | 0.577
YFCRWYRNRKS [EREG_Y144] | 0.621
